Reference: patent publication US20250388702A1 (Dana-Farber, published 2025)

T1: Human HHLA2 (human, UniProt Q9UM44 23-414)
T1 construct: also called B7-H7; B7-H5
T1 sequence: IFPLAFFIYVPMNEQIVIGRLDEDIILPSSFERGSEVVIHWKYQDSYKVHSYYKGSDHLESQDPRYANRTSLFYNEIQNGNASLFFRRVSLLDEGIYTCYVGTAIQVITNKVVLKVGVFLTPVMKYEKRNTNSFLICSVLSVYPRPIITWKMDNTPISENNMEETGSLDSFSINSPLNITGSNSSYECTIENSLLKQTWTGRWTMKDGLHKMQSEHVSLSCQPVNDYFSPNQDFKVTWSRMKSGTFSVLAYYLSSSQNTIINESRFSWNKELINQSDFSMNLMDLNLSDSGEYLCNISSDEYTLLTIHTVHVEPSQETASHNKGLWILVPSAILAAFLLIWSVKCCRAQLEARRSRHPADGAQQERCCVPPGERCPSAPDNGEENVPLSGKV


How the values were obtained:
[1] = target: T2, Human KIR3DL3 (human, UniProt Q8N743 26-410); assay: cell-based or functional assay
[2] = target: T3, KIR3DL1 (UniProt P43629 22-444, limits assumed); assay: HEK293 cell microarray
T3 construct: whole, on cells
Method: (§1) Replicate microarray slides expressing a complete KIR family cDNA panel were fixed and blocked with buffer containing PBS/0.5% BSA and incubated for 1 hour at room temperature with individual KIR3DL3 mAb hybridoma supernatants at 1:5, 1:25 and 1:250 dilutions in PBS/0.1% BSA. Cell arrays were washed with PBS and incubated for 1 hour at room temperature in PBS/0.1% BSA containing AF647-conjugated goat anti-mouse IgG (H+L) (Life Technologies, A21235). Slides were washed with PBS, dried, and imaged for ZsGreen1 and AF647 fluorescence.
as §1, with “In Table 4, replicate” for “Replicate”, “the” for “a complete”, “panel (as in FIG. 1A, FIG. 2B, and FIG. 2C)” for “panel”

[3] = target: T4, KIR3DL2 (UniProt P43630 22-455, limits assumed); assay: HEK293 cell microarray
T4 construct: whole, on cells
Method: as §1
as §1, with “In Table 4, replicate” for “Replicate”, “the” for “a complete”, “panel (as in FIG. 1A, FIG. 2B, and FIG. 2C)” for “panel”

[4] = target: T5, KIR2DL1 (UniProt P43626 22-348, limits assumed); assay: HEK293 cell microarray
T5 construct: whole, on cells
Method: as §1
as §1, with “In Table 4, replicate” for “Replicate”, “the” for “a complete”, “panel (as in FIG. 1A, FIG. 2B, and FIG. 2C)” for “panel”

[5] = target: T6, KIR2DL2 (UniProt P43627 22-348, limits assumed); assay: HEK293 cell microarray
T6 construct: whole, on cells
Method: as §1
as §1, with “In Table 4, replicate” for “Replicate”, “the” for “a complete”, “panel (as in FIG. 1A, FIG. 2B, and FIG. 2C)” for “panel”

[6] = target: T7, KIR2DL3 (UniProt P43628 22-341, limits assumed); assay: HEK293 cell microarray
T7 construct: whole, on cells
Method: as §1
as §1, with “In Table 4, replicate” for “Replicate”, “the” for “a complete”, “panel (as in FIG. 1A, FIG. 2B, and FIG. 2C)” for “panel”

[7] = target: T8, KIR2DL4 (UniProt Q99706 22-377, limits assumed); assay: HEK293 cell microarray
T8 construct: whole, on cells
Method: as §1
as §1, with “In Table 4, replicate” for “Replicate”, “the” for “a complete”, “panel (as in FIG. 1A, FIG. 2B, and FIG. 2C)” for “panel”

[8] = target: T9, KIR2DL5A (UniProt Q8N109 22-375, limits assumed); assay: HEK293 cell microarray
T9 construct: whole, on cells
Method: as §1
as §1, with “In Table 4, replicate” for “Replicate”, “the” for “a complete”, “panel (as in FIG. 1A, FIG. 2B, and FIG. 2C)” for “panel”

[9] = target: T10, KIR2DL5B (UniProt Q8NHK3 22-375, limits assumed); assay: HEK293 cell microarray
T10 construct: whole, on cells
Method: as §1
as §1, with “In Table 4, replicate” for “Replicate”, “the” for “a complete”, “panel (as in FIG. 1A, FIG. 2B, and FIG. 2C)” for “panel”

[10] = target: T11, KIR2DS1 (UniProt Q14954 22-304, limits assumed); assay: HEK293 cell microarray
T11 construct: whole, on cells
Method: as §1
as §1, with “In Table 4, replicate” for “Replicate”, “the” for “a complete”, “panel (as in FIG. 1A, FIG. 2B, and FIG. 2C)” for “panel”

[11] = target: T12, KIR2DS2 (UniProt P43631 22-304, limits assumed); assay: HEK293 cell microarray
T12 construct: whole, on cells
Method: as §1
as §1, with “In Table 4, replicate” for “Replicate”, “the” for “a complete”, “panel (as in FIG. 1A, FIG. 2B, and FIG. 2C)” for “panel”

[12] = target: T13, KIR2DS3 (UniProt Q14952 22-304, limits assumed); assay: HEK293 cell microarray
T13 construct: whole, on cells
Method: as §1
as §1, with “In Table 4, replicate” for “Replicate”, “the” for “a complete”, “panel (as in FIG. 1A, FIG. 2B, and FIG. 2C)” for “panel”

[13] = target: T14, KIR2DS5 (UniProt Q14953 22-304, limits assumed); assay: HEK293 cell microarray
T14 construct: whole, on cells
Method: as §1
as §1, with “In Table 4, replicate” for “Replicate”, “the” for “a complete”, “panel (as in FIG. 1A, FIG. 2B, and FIG. 2C)” for “panel”

[14] = target: T15, KIR3DS1 (UniProt Q14943 22-382, limits assumed); assay: HEK293 cell microarray
T15 construct: whole, on cells
Method: as §1
as §1, with “In Table 4, replicate” for “Replicate”, “the” for “a complete”, “panel (as in FIG. 1A, FIG. 2B, and FIG. 2C)” for “panel”

[15] = target: T2, Human KIR3DL3; assay: flow cytometry, KIR3DL3-transfected 300.19 cells
[16] = target: T2, Human KIR3DL3; assay: flow cytometry, KIR3DL3-transfected 300.19 cells; remark: listed apart in the source
[17] = target: T2, Human KIR3DL3; assay: flow cytometry; blockade of HHLA2-mIgG2a binding to KIR3DL3-transfected cells
Method: (§2) The indicated concentrations of KIR3DL3 mAbs were pre-incubated with KIR3DL3 transfected 300.19 cells for 30 minutes at 4° C. […] EC50 and IC50 analysis were conducted using GraphPad Prism®.

[18] = target: T2, Human KIR3DL3; assay: flow cytometry; blockade of HHLA2-mIgG2a binding to KIR3DL3-transfected 300.19 cells
Method: as §2

[19] = target: T3, KIR3DL1; assay: cell microarray on transfected HEK293 cells, HHLA2-mIgG2a probe, AF647 anti-mouse IgG detection
Method: (§3) A library of ˜5500 full length cDNA clones covering more than 3,500 different plasma membrane proteins was arrayed in duplicate across 13 microarray slides (“slide sets”). Human HEK293 cells were grown above the cDNA clones and reverse-transfected. An expression vector (pIRES-hEGFR-IRES-ZsGreen1) was spotted in quadruplicate on every slide and was used to ensure that a minimal threshold of transfection efficiency had been achieved or exceeded on every slide.
(§4) Two replicate slides were screened for each of the 13 slide sets. Fluorescent images were analyzed and quantitated (for transfection efficiency) using ImageQuant software (GE). A protein ‘hit’ was defined as duplicate spots showing a raised signal compared to background levels. This was achieved by visual inspection using the images gridded on the ImageQuant software.

[20] = target: T4, KIR3DL2; assay: as above
Method: as §3, §4

[21] = target: T5, KIR2DL1; assay: as above
Method: as §3, §4

[22] = target: T6, KIR2DL2; assay: as above
Method: as §3, §4

[23] = target: T8, KIR2DL4; assay: as above
Method: as §3, §4

[24] = target: T9, KIR2DL5A; assay: as above
Method: as §3, §4

[25] = target: T10, KIR2DL5B; assay: as above
Method: as §3, §4

[26] = target: T1, Human HHLA2; assay: as above
Method: as §3, §4

[27] = target: T16, EGFR (human, UniProt P00533 25-1210); assay: as above
T16 construct: whole, on cells; also called hEGFR
Method: as §3, §4

[28] = target: T2, Human KIR3DL3; assay: flow cytometry; blockade of HHLA2-mIgG2a binding to KIR3DL3-transfected 300.19 cells; Table 3; blockade of HHLA2-mouse IgG2a binding to KIR3DL3 transfected 300.19 cells, 4° C
Method: as §2

T10 sequence (Q8NHK3 22-375 limits assumed): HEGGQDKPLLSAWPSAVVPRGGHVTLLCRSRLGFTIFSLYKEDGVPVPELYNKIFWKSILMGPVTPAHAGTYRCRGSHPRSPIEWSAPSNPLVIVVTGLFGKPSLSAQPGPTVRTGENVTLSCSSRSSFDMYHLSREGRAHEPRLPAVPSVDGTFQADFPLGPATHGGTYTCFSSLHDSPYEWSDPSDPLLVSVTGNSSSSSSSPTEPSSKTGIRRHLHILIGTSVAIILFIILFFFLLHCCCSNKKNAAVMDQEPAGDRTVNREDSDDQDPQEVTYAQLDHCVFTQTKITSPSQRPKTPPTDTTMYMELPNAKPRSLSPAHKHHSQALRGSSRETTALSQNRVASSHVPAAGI
T3 sequence (P43629 22-444 limits assumed): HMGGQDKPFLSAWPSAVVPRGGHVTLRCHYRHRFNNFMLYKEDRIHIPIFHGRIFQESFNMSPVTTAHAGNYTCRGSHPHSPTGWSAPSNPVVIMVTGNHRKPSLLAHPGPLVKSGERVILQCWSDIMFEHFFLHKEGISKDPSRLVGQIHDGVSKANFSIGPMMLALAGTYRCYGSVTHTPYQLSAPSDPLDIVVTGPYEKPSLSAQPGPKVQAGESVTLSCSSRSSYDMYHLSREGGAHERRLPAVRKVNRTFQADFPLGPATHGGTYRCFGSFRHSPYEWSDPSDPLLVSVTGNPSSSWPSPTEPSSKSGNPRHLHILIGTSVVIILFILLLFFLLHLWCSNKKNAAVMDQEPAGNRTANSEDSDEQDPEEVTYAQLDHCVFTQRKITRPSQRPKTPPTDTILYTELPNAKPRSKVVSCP
T2 sequence (Q8N743 26-410 H321N limits assumed): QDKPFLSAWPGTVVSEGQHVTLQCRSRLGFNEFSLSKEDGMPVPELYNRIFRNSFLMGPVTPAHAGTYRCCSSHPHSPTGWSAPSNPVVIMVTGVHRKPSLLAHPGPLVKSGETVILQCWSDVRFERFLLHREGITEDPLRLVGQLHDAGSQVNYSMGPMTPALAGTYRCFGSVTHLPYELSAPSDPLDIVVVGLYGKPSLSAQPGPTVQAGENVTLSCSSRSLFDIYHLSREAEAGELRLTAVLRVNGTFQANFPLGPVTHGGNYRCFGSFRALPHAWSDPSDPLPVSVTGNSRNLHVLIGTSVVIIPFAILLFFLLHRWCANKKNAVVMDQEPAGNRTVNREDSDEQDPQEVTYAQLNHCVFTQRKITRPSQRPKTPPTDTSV
T8 sequence (Q99706 22-377 limits assumed): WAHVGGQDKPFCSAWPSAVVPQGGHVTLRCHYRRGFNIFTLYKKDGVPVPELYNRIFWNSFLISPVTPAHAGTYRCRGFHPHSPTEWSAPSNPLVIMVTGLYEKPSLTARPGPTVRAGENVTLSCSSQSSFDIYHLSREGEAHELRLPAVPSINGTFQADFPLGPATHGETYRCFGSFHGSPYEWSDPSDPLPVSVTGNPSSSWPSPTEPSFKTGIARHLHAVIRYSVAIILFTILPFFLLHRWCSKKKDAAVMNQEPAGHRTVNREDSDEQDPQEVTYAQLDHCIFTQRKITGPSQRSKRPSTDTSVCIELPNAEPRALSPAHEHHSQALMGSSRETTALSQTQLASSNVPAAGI
T5 sequence (P43626 22-348 limits assumed): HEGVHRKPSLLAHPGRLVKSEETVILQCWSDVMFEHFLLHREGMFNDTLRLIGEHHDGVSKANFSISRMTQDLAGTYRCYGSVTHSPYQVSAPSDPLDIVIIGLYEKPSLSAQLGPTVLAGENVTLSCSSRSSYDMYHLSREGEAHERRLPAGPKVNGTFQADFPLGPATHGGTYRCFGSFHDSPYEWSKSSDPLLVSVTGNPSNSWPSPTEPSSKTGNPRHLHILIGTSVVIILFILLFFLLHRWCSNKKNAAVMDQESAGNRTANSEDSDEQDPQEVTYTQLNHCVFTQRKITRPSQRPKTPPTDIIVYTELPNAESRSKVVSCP
T6 sequence (P43627 22-348 limits assumed): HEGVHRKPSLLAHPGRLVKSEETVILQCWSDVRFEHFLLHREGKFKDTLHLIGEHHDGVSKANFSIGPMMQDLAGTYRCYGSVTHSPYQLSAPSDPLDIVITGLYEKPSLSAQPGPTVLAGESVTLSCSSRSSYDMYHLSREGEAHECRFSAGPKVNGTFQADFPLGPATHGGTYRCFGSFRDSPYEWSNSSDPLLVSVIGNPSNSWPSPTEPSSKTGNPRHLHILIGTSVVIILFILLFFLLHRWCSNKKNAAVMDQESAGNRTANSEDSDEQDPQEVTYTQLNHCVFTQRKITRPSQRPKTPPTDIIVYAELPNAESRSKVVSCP
T4 sequence (P43630 22-455 limits assumed): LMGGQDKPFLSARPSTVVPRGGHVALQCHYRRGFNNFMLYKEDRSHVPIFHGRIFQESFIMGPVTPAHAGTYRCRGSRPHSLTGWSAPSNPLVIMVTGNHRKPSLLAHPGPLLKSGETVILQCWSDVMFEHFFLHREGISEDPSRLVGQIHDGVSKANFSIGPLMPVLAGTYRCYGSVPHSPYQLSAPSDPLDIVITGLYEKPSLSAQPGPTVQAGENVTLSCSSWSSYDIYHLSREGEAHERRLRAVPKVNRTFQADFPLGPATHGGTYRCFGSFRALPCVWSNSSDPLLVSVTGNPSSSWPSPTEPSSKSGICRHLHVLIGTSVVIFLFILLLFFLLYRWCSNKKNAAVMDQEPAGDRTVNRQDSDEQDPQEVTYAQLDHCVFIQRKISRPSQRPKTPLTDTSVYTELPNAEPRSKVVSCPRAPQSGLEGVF
T9 sequence (Q8N109 22-375 limits assumed): as the sequence (Q8NHK3 22-375 limits assumed) above, with D152N, S174G counted along it
T13 sequence (Q14952 22-304 limits assumed): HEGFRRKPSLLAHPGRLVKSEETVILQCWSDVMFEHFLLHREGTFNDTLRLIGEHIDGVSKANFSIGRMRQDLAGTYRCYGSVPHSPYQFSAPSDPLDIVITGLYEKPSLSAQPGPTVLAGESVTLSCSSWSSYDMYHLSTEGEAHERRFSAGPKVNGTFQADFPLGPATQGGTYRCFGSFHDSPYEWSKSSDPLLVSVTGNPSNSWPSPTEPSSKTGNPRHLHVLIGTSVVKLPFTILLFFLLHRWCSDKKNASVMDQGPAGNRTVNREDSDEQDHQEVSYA
T15 sequence (Q14943 22-382 limits assumed): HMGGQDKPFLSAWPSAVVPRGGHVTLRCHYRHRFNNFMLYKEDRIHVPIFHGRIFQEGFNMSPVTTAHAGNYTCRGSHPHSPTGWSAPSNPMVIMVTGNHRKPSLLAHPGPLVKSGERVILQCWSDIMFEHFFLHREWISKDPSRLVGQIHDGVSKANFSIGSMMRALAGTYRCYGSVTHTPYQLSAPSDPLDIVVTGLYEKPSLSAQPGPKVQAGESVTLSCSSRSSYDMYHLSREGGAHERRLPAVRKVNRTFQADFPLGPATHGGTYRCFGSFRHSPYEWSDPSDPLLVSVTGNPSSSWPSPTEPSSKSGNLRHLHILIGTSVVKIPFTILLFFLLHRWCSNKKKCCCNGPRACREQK
T12 sequence (P43631 22-304 limits assumed): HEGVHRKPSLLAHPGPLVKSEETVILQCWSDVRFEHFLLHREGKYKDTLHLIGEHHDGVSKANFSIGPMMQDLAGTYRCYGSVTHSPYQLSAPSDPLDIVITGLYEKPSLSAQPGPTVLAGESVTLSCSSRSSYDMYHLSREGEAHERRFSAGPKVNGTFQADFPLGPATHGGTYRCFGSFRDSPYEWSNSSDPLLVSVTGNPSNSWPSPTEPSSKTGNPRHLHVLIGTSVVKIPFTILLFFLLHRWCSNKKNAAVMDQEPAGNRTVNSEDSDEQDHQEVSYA
T7 sequence (P43628 22-341 limits assumed): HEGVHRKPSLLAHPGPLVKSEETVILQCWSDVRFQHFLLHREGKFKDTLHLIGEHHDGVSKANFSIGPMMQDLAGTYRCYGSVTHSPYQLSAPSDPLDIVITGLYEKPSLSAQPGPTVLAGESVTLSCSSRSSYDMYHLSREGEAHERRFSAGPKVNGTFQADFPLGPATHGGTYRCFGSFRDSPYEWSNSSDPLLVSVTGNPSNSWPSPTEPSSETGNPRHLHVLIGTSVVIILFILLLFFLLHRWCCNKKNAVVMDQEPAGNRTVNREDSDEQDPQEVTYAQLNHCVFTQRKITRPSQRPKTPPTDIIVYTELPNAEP
T14 sequence (Q14953 22-304 limits assumed): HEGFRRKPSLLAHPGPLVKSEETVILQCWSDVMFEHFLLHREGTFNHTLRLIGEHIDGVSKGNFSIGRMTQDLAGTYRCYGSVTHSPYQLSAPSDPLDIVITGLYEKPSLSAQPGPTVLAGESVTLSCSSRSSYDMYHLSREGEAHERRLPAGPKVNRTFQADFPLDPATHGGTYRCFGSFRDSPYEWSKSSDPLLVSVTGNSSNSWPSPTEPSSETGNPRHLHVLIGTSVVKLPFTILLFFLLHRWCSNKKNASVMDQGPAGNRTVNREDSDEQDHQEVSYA
T11 sequence (Q14954 22-304 limits assumed): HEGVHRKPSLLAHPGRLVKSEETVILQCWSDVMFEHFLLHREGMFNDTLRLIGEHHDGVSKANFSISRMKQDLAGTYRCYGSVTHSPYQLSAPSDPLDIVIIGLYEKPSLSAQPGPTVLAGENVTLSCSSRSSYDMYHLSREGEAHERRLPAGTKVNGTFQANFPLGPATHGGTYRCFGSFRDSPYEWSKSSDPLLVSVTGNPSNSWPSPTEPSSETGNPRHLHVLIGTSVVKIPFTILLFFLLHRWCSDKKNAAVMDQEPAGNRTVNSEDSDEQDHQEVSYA

Jurkat IL-2 Luciferase, Fold Activation [1]	Kd [15]	EC50 [16]	IC50 [17]	Binder	binding result [2]	binding result [3]	binding result [4]	binding result [5]	binding result [6]	binding result [7]	binding result [8]	binding result [9]	binding result [10]	binding result [11]	binding result [12]	binding result [13]	binding result [14]	also measured
1.2 fold	1 µg/mL	1 µg/mL	> 10 µg/mL	KIR3DL3 mAb 574.2.8F7.1.7.4 (antibody, IgG1, V domains shown, Mouse hybridoma antibody, IgG1; only variable domains given; also called AVS-3700) VH: DVKLVESGGGLVKPGGSLKLSCAASGFTFSSYCMSWVRQTPEKRLEWVATISSGGNYIYYPDSVKGRFTISRDIAKNTLYLQMSSLKSEDTAMYYCTRGGYDERYFDYWGQGTILTVSS VL: DIQMTQSPASLSASVGETVTITCRASENIYSYLAWYQQKQGKSPQLLVYNAKTLTEGMPSRFSGSGSGTQFSLRINSLQPEDFGSYYCQHHHGTPRTFGGGTKLEIK	no binding (tested: supernatant 1:5, 1:25, 1:250)	no binding (tested: supernatant 1:5, 1:25, 1:250)	no binding (tested: supernatant 1:5, 1:25, 1:250)	no binding (tested: supernatant 1:5, 1:25, 1:250)	no binding (tested: supernatant 1:5, 1:25, 1:250)	no binding (tested: supernatant 1:5, 1:25, 1:250)	no binding (tested: supernatant 1:5, 1:25, 1:250)	no binding (tested: supernatant 1:5, 1:25, 1:250)	no binding (tested: supernatant 1:5, 1:25, 1:250)	no binding (tested: supernatant 1:5, 1:25, 1:250)	no binding (tested: supernatant 1:5, 1:25, 1:250)	no binding (tested: supernatant 1:5, 1:25, 1:250)	no binding (tested: supernatant 1:5, 1:25, 1:250)	IC50 [18]: 27.5 µg/mL
–	–	–	–	Human HHLA2-mIgG2a fusion protein (Fc fusion, also called HHLA2-Ig; HHLA2-mouse IgG2a; not shown: mutated at IgG2a L235E, E318A, K320A, K322A) IFPLAFFIYVPMNEQIVIGRLDEDIILPSSFERGSEVVIHWKYQDSYKVHSYYKGSDHLESQDPRYANRTSLFYNEIQNGNASLFFRRVSLLDEGIYTCYVGTAIQVITNKVVLKVGVFLTPVMKYEKRNTNSFLICSVLSVYPRPIITWKMDNTPISENNMEETGSLDSFSINSPLNITGSNSSYECTIENSLLKQTWTGRWTMKDGLHKMQSEHVSLSCQPVNDYFSPNQDFKVTWSRMKSGTFSVLAYYLSSSQNTIINESRFSWNKELINQSDFSMNLMDLNLSDSGEYLCNISSDEYTLLTIHTVHVEPSQETASHN	–	–	–	–	–	–	–	–	–	–	–	–	–	binding result [19]: no binding (tested: 20 ug/ml); binding result [20]: no binding (tested: 20 ug/ml); binding result [21]: no binding (tested: 20 ug/ml); binding result [22]: no binding (tested: 20 ug/ml); binding result [23]: no binding (tested: 20 ug/ml); binding result [24]: no binding (tested: 20 ug/ml); binding result [25]: no binding (tested: 20 ug/ml); binding result [26]: no binding (tested: 20 ug/ml); binding result [27]: no binding (tested: 20 ug/ml)
9.9 fold	0.13 µg/mL	0.13 µg/mL	0.61 µg/mL	KIR3DL3 mAb 574.2.1G7.9.9 (antibody, IgG2b, V domains shown, Mouse hybridoma antibody, IgG2b; only variable domains given; also called AVS-3701) VH: ELKLEESGGGLVQPGGSMKLSCVASGFTFSNYWMNWVRQSPEKGLEWIAEIRLKSNNYATHYAESVKGRFTISRDDSKSSVYLQMNNLRAEDTGIFYCTPFYGSSFPYWGQGTLVTVSA VL: DIQMTQTTSSLSASLGDRVTISCRASQDISNYLNWYQQKPDGTVKLLIYYTSILQLGVPPRFSGSGSGTDYSLTISNLEQEDIATYFCQQGNTLPFTFGAGTKVELK	no binding (tested: supernatant 1:5, 1:25, 1:250)	no binding (tested: supernatant 1:5, 1:25, 1:250)	no binding (tested: supernatant 1:5, 1:25, 1:250)	no binding (tested: supernatant 1:5, 1:25, 1:250)	no binding (tested: supernatant 1:5, 1:25, 1:250)	no binding (tested: supernatant 1:5, 1:25, 1:250)	no binding (tested: supernatant 1:5, 1:25, 1:250)	no binding (tested: supernatant 1:5, 1:25, 1:250)	no binding (tested: supernatant 1:5, 1:25, 1:250)	no binding (tested: supernatant 1:5, 1:25, 1:250)	no binding (tested: supernatant 1:5, 1:25, 1:250)	no binding (tested: supernatant 1:5, 1:25, 1:250)	no binding (tested: supernatant 1:5, 1:25, 1:250)	Jurkat IL-2 Luciferase Activation, EC50 [1]: 0.37 µg/mL; IC50 [28]: 0.06 µg/mL
